Laboratory results as given in paper PMC6937246.

How the values were obtained:
purified tubulin dimer [1] = assay: SPR
purified tubulin dimer [2] = assay: SPR; VASH1 K168E/C169S; settings: complex
purified tubulin dimer [3] = assay: SPR; VASH1 R222A/C169S; settings: complex

VASH1-SVBP complex, VASH1 mutated at R222, sequence (Q7L8A9 44-315, change not shown): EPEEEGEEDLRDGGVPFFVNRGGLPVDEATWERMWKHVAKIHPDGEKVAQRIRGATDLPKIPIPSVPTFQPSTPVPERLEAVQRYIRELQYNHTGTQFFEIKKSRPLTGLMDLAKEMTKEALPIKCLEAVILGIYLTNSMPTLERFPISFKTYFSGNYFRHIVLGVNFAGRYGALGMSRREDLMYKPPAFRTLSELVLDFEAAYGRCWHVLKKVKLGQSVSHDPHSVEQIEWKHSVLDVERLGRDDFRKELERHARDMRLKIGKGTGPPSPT
VASH1-SVBP complex, VASH1 mutated at R222, sequence (Q8N300 whole entry, change not shown): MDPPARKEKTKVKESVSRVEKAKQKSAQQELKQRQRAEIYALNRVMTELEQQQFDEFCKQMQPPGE
VASH1-SVBP complex, VASH1 mutated at K168, sequence (Q7L8A9 44-315, change not shown): as the sequence (Q7L8A9 44-315, change not shown) above
VASH1-SVBP complex, VASH1 mutated at K168, sequence (Q8N300 whole entry, change not shown): as the sequence (Q8N300 whole entry, change not shown) above

Kd (purified tubulin dimer [1]) [nM] | Substance | further results
1310 | VASH1 R222E/R223E/C169S-SVBP | 
 | VASH1-SVBP complex, VASH1 mutated at K168 (from UniProt Q7L8A9 44-315; Q8N300 1-66) | Kd (purified tubulin dimer [2]): 1140 nM
 | VASH1-SVBP complex, VASH1 mutated at R222 (from UniProt Q7L8A9 44-315; Q8N300 1-66) | Kd (purified tubulin dimer [3]): 1400 nM
570 | VASH1 S221A/C169S-SVBP | 
750 | VASH1 H204A/C169S-SVBP | 
990 | VASH1 C169A-SVBP | 
470 | VASH1 C169S-SVBP | 
